According to patent US20110105404A1 (TIANJIN MEDICAL UNIVERSITY, published 2011):

Assays:
[1] = biological target: Aβ1-42 peptide; assay: cell-based or functional assay
[2] = biological target: Aβ1-42 peptide; assay: cell-based or functional assay; remark: listed apart in the source

| Binder | Inhibition (%) of Aβ1-42 aggregation and fibril formation, ThT fluorescence, 44.30 µmol/L peptide with 11.07 µmol/L Aβ1-42, 37° C., 24 h [1] [%] | T1/2, time point at which the ThT fluorescence intensity reaches the half-peak [2] [h] |
| --- | --- | --- |
| HKQLVFFEED [H101] | 24.8 |  |
| HKQLPFFEED [H102] | 27.8 | 96 |
| HQKLVFFAED [H103] | 14.9 |  |
